Data published in US20240117030A1 (Pfizer, published 2024).

Legend:
murine IL-33 = target: T1, murine IL-33 (mouse, UniProt Q8BVZ5 109-266); test: SPR (Biacore T-200, 37 C, buffer with 3 mM DTT), trispecific captured on Protein A/G on a CM5 chip, 200 nM IL-33 injected for 60 s (concentration from Example 75)
T1 construct: also called mouse IL-33 WT
T1 sequence (looked up): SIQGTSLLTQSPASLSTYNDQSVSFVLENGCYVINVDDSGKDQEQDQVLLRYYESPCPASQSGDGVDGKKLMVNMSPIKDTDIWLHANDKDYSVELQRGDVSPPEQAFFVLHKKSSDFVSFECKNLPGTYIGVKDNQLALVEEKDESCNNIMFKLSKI
Experimental: (§1) Experiments were done at 37° C. with a collection rate of 10 Hz using HBS-EP+ pH 7.4, containing 3 mM DTT as running and dilution buffer. […] An anti-rat and mouse positive control antibody M36 (Pfizer, L4295010-051) diluted to 10 μgs/mL was captured on flow cell 2 for 60 sec at 10 μLs/min. Flow cell 1 was used as a reference. Binding was evaluated by injecting 200 nM dilutions of each cytokine over all 4 flow cells for 60 sec at 50 μL/min followed by a 300 sec dissociation. The surface was regenerated with a single 60 sec injection of 10 mM Glycine pH 1.5 at 50 μL/min. The data was double referenced and an overlay of the resulting sensorgrams (FIG. 39) was prepared using Biacore T-200 Analysis Software version 3.2.

rat IL-33 = target: T2, rat IL-33 (rat, UniProt Q66H70 109-264, limits assumed); test: as above
T2 construct: also called rat IL-33 WT
T2 sequence (looked up): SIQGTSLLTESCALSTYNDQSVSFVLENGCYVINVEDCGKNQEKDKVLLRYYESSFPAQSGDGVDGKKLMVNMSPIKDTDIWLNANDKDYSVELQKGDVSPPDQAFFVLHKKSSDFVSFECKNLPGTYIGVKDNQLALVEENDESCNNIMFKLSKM
Experimental: as §1

mouse IL-13 [1] = target: T3, mouse IL-13 (mouse, UniProt P20109 26-131, limits assumed); test: SPR (Biacore 8K+), trispecific captured on anti-human Fc on a CM5 chip, 200 nM IL-13 injected for 60 s
T3 construct: also called mu IL-13
T3 sequence (looked up): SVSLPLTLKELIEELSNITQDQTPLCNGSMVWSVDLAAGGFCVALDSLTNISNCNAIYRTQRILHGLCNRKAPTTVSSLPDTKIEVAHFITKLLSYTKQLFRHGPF
Experimental: (§2) All experiments were performed using a Biacore 8K+ instrument (GE HealthCare, Marlborough, MA). Anti-human Fc (Jackson Immunoresearch) or anti-mouse Fc (GE HealthCare, Marlborough, MA) was immobilized on a CM5 sensor chip using a standard amine coupling protocol provided by GE HealthCare. […] The association and dissociation phases were 60 seconds and 300 seconds, respectively. At the end of the dissociation phase, the surface containing anti-human or anti-mouse Fc was regenerated using one 30 second pulse of 3M MgCl₂ followed by one 30 second pulse of 10 mM glycine pH 1.7.

rat IL-13 = target: T4, rat IL-13 (rat, UniProt P42203 19-131, limits assumed); test: as above
T4 construct: also called rt IL-13
T4 sequence (looked up): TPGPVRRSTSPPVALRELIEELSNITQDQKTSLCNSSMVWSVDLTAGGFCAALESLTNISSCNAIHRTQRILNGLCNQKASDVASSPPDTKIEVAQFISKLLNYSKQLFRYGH
Experimental: as §2

human IL-13 [2] = target: T5, human IL-13 (human, UniProt P35225 35-146); test: cell-based or functional assay
cynomolgus monkey IL-13 [3] = target: T6, cynomolgus monkey IL-13 (cynomolgus monkey, UniProt Q0PW92 19-132); test: cell-based or functional assay
human IL-4 = target: T7, human IL-4 (human, UniProt P05112 25-153); test: cell-based or functional assay
T7 sequence (looked up): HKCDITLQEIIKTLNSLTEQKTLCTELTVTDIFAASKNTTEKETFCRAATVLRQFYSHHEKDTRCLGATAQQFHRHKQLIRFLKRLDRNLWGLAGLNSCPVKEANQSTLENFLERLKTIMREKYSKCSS

cynomolgus monkey IL-4 = target: T8, cynomolgus monkey IL-4 (cynomolgus monkey, UniProt P79339 25-153); test: KinExA, fixed antigen
T8 construct: mature; also called cy IL-4; cyno IL-4
T8 sequence (looked up): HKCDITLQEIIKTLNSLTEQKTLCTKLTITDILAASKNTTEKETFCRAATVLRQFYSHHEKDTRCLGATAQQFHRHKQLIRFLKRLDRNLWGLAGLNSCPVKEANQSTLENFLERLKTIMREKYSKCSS
Experimental: (§3) Samples were prepared in PBS containing 0.1% sodium azide and 1.0 mg/ml BSA. The fixed antigen assay method was used to determine binding affinity. […] Each trispecific and IL-4 cytokine were equilibrated for at least 72 hours at room temperature, then passed through a flow cell containing Polymethylmethacrylate (PMMA) beads coated with anti-hIL-4 Ab-0002 (Pfizer) that contains the same IL-4 binding domain as the trispecifics. […] Data analysis was performed with KinExA Pro software version 4.3.11 (Sapidyne). […] The ‘drift correction’ fitting option was used when responses varied between replicate injections. Two curves were obtained in independent experiments and analyzed using the ‘n-curve analysis’ tool to obtain global best fit values for the KD and active concentration of IL-4 cytokine. The software reports each best fit value along with a 95% confidence interval.
(§4) Samples were prepared in PBS containing 0.1% sodium azide and 1.0 mg/ml BSA. A fixed antigen assay method was used to determine binding affinity.

cynomolgus monkey IL-13 [4] = target: T6, cynomolgus monkey IL-13; test: KinExA, fixed antigen
Experimental: as §3, §4

mouse IL-4 = target: T9, mouse IL-4 (mouse, UniProt P07750 23-140); test: SPR (Biacore 8K+), trispecific captured on anti-human Fc on a CM5 chip, 200 nM IL-4 injected for 60 s
T9 construct: also called mu IL-4
T9 sequence (looked up): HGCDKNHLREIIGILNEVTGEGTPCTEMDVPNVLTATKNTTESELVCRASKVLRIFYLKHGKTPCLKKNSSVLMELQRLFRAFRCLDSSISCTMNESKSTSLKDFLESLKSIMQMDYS
Experimental: (§5) All experiments were performed using a Biacore 8K+instrument (GE HealthCare, Marlborough, MA). Anti-human Fc (Jackson Immunoresearch) or anti-mouse Fc (GE HealthCare, Marlborough, MA) was immobilized on a CM5 sensor chip using a standard amine coupling protocol provided by GE HealthCare. […] The association and dissociation phases were 60 seconds and 300 seconds, respectively. At the end of the dissociation phase, the surface containing anti-human or anti-mouse Fc was regenerated using one 30 second pulse of 3M MgCl₂ followed by one 30 second pulse of 10 mM glycine pH 1.7.

rat IL-4 = target: T10, rat IL-4 (rat, UniProt P20096 25-147, limits assumed); test: as above
T10 construct: also called rt IL-4
T10 sequence (looked up): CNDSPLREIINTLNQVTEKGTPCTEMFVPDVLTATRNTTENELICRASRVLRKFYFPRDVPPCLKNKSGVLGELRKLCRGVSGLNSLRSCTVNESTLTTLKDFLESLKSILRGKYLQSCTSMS
Experimental: as §5

human IL-13 [5] = target: T5, human IL-13; test: SPR 37°C, antibody captured by anti-human IgG, human IL-13 1.56-50 nM
Experimental: The affinity values (KD) were determined using Surface Plasmon Resonance (SPR) for 10 lead variants identified from bioassay screening.

human IL-13 [6] = target: T5, human IL-13; test: cell-based or functional assay; remark: listed apart in the source
mouse IL-13 [7] = target: T3, mouse IL-13; test: ELISA: competition with biotinylated human IL-13 for binding to IL13-0001
Text: (§6) Recombinant human, mouse, rat, and dog IL 13 were purchased from R&D Systems (Minneapolis, MN). Recombinant sheep and rabbit IL-13 were produced by Pfizer Global Biotechnologies (PGBT, Cambridge, MA). Recombinant cynomolgus monkey IL 13 was purchased from Sino Biological (Beijing, China).

dog IL-13 = target: T11, dog IL-13 (dog, UniProt Q9N0W9 19-131, limits assumed); test: as above
T11 sequence (looked up): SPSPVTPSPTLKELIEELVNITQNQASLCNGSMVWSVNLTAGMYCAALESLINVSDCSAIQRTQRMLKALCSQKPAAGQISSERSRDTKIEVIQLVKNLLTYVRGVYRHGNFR
Text: as §6

cynomolgus monkey IL-13 [8] = target: T6, cynomolgus monkey IL-13; test: as above
Text: as §6

human IL-13 [9] = target: T5, human IL-13; test: cell-based or functional assay; remark: listed apart in the source

T5 sequence (P35225 35-146 limits assumed, form in doubt): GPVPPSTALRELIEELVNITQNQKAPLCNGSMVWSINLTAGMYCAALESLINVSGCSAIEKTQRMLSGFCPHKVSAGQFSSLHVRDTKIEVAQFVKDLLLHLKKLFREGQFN
T6 sequence (Q0PW92 entry or part of it limits assumed): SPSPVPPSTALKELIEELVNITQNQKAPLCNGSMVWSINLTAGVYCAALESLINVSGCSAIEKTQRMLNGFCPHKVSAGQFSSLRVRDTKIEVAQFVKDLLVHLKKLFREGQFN

B1: IL13433-1258 (trispecific antibody)
heavy: EVQLVESGGGLVQPGGSLRLSCAASGFTFSSYWMYWVRQAPGKGLEWVAAITPNAGEDYYPESVKGRFTISRDNAKNSLYLQMNSLRAEDTAVYYCARGQYYYTKYSLGYWGQGTLVTVSSASTKGPSVFPLAPSSKSTSGGTAALGCLVKDYFPEPVTVSWNSGALTSGVHTFPAVLQSSGLYSLSSVVTVPSSSLGTQTYICNVNHKPSNTKVDKKVEPKSCRKTHTCPPCPAPEAAGAPSVFLFPPKPKDTLMISRTPEVTCVVVDVSHEDPEVKFNWYVDGVEVHNAKTKPREEQYNSTYRVVSVLTVLHQDWLNGKEYKCKVSNKALPAPIEKTISKAKGQPREPQVYTLPPSREEMTKNQVSLTCLVKGFYPSDIAVEWESNGQPENNYKTTPPVLDSDGSFFLYSRLTVDKSRWQQGNVFSCSVLHEALHSHYTQKSLSLSPGK
chain 1: DIQMTQSPSSLSASVGDRVTITCKASESVDHFGWSLVHWYQQKPGKAPKLLIYRASNLESGVPSRFSGSGSGTDFTLTISSLQPEDFATYYCQQSNEDPWTFGGGTKVEIKRTVAAPSVFIFPPSDEQLKSGTASVVCLLNNFYPREAKVQWKVDNALQSGNSQESVTEQDSKDSTYSLSSTLTLSKADYEKHKVYACEVTHQGLSSPVTKSFNRGECGGGGSEVTLRESGPALVKPTQTLTLTCTFSGFSLSNFGEGLSWIRQPPGKGLEWLAHIYWDDDKRYNPSLKSRLTISKDTSRNQVVLTMTNMDPVDTATYYCARRETVFYWYFDVWGQGTTVTVSSASTKGPSVFPLAPSSKSTSGGTAALGCLVKDYFPEPVTVSWNSGALTSGVHTFPAVLQSSGLYSLSSVVTVPSSSLGTQTYICNVNHKPSNTKVDKKVEPKSCEKTHTCPPCPAPEAAGAPSVFLFPPKPKDTLMISRTPEVTCVVVDVSHEDPEVKFNWYVDGVEVHNAKTKPREEQYNSTYRVVSVLTVLHQDWLNGKEYKCKVSNKALPAPIEKTISKAKGQPREPQVYTLPPSREEMTKNQVSLTCEVKGFYPSDIAVEWESNGQPENNYKTTPPVLDSDGSFFLYSKLTVDKSRWQQGNVFSCSVLHEALHSHYTQKSLSLSPGK
light 1: DIQMTQSPSSLSASVGDRVTITCRASQPIHNHLDWYQQKPGKAPKLLIYFGKNLQEGVPSRFSGSGSGTDFTLTISSLQPEDFATYYCFQYKKGWSFGGGTKVEIKRTVAAPSVFIFPPSDEQLKSGTASVVCLLNNFYPREAKVQWKVDNALQSGNSQESVTEQDSKDSTYSLSSTLTLSKADYEKHKVYACEVTHQGLSSPVTKSFNRGEC
light 2: DIQMTQSPSSLSASVGDRVTITCRASQSVDEEGDSYMNWYQQKPGKAPKLLIYAASNLESGVPSRFSGSGSGTDFTLTISSLQPEDFATYYCQQSNKDPPTFGGGTKVEIKRTVAAPSVFIFPPSDEQLKSGTASVVCLLNNFYPREAKVQWKVDNALQSGNSQESVTEQDSKDSTYSLSSTLTLSKADYEKHKVYACEVTHQGLSSPVTKSFNRGEC
chain 2: EVQLVESGGGLVQPGGSLRLSCAASGFTFSSYAMSWVRQAPGKGLEWVASISSGDTTYYPDSVKGRFTISRDNAKNSLYLQMNSLRAEDTAVYYCARNEGYYFGLTLWGQGTLVTVSSASTKGPSVFPLAPSSKSTSGGTAALGCLVKDYFPEPVTVSWNSGALTSGVHTFPAVLQSSGLYSLSSVVTVPSSSLGTQTYICNVNHKPSNTKVDKKVEPKSC
notes: Tri-Fab-Fc: SFab HC(3) IL-33, DFab LC(1)-HC(2) IL-13/IL-4, SFab LC(3), DFab LC(2), modified Fd(1); EE/RR, LS
binding result (murine IL-33): no binding (tested: 200 nM) | binding result (rat IL-33): no binding (tested: 200 nM) | binding result (mouse IL-13 [1]): no binding (tested: 200 nM) | binding result (rat IL-13): no binding (tested: 200 nM) | fold IL-13 neutralization activity over dupilumab (monocyte CD23 bioassay) (human IL-13 [2]): 7.9 fold | fold lower potency than IL13-0001 (monocyte CD23 bioassay) (human IL-13 [2]): ~2.7 fold | fold reduced neutralization compared to the human cytokine (monocyte CD23 bioassay) (cynomolgus monkey IL-13 [3]): ~4.5 fold | fold IL-4 neutralization activity over dupilumab (monocyte CD23 bioassay) (human IL-4): ~10 fold | fold lower potency than mAb IL4-1040 (monocyte CD23 bioassay) (human IL-4): ~3.1 fold | fold weaker than the human IL-4 affinity value (cynomolgus monkey IL-4): ~6.2 fold | fold of the human IL-13 affinity value (cynomolgus monkey IL-13 [4]): ≤ 2 fold | binding result (mouse IL-4): no binding (tested: 200 nM) | binding result (rat IL-4): no binding (tested: 200 nM)

B2: IL13-0001 (antibody, human IgG1, kappa, V domains shown)
VH: EVQLVESGGGLVQPGGSLRLSCAASGFTFSSYAMSWVRQAPGKGLEWVASISSGDTTYYPDSVKGRFTISRDNAKNSLYLQMNSLRAEDTAVYYCARNEGYYFGLTLWGQGTLVTVSS
VL: DIQMTQSPSSLSASVGDRVTITCKASESVDHFGWSLVHWYQQKPGKAPKLLIYRASNLESGVPSRFSGSGSGTDFTLTISSLQPEDFATYYCQQSNEDPWTFGGGTKVEIKR
notes: also called IL13433-0001; 1RVHC9-VLA4
Kd (human IL-13 [5]): 0.0577 nM | CD23: Fold versus IL13-0001 (human IL-13 [6]): 1 fold | CD23 IC50 [pM] Ave. n = 2 (human IL-13 [6]): 6 pM | binding result (mouse IL-13 [7]): no binding | binding result (dog IL-13): no binding | binding result (cynomolgus monkey IL-13 [8]): binds | CD23: Fold bioactivity relative to IL13-0001 (human IL-13 [9]): 1 fold | CD23: Fold bioactivity relative to IL13-1307 (human IL-13 [9]): 29.1 fold | CD23 IC50 [pM] (human IL-13 [9]): 10.5 pM | pSTAT6: Fold bioactivity relative to IL13-0001 (human IL-13 [9]): 1 fold | pSTAT6: Fold bioactivity relative to IL13-1307 (human IL-13 [9]): 1.5 fold | pSTAT6 IC50 [pM] (human IL-13 [9]): 92 pM
